# Measurements published in patent publication US20240261427A1, “LINKERS, DRUG LINKERS AND CONJUGATES THEREOF AND METHODS OF USING THE SAME” (ProfoundBio US Co., priority 2021, published 2024).
# Test system: Hela cells
# Test: Flow cytometry binding to Hela cells
# Type: cell-based, human
# Conditions: transfection supernatant, FIG. 6
# Method: The binding activity of the antibodies to Hela cells (ATCC® CCL-2, provided by COBIOER) and to RPTEC/TERT1 cells (ATCC® CRL-4031, provided by COBIOER) was tested by flow cytometry using the transfection supernatants. Briefly, target cells were digested with 0.02% EDTA-2Na, centrifuged at 1500 rpm for 3 mins, and resuspended with PBS. After counting, the cells were added to a 1.5 ml centrifuge tube with 1×10^6 cells per tube, centrifuged at 1500 rpm for 5 minutes, and the supernatant was discarded. Then all the operations were carried out on an ice bath. 100 μL of transfection supernatant was added to each 1.5 ml centrifuge tube. Blank cells, blank cells plus secondary antibody, medium and HEK293 supernatant were set up as the controls. The reaction was performed on an ice bath for 1 hour. Then the cells were pelleted and washed twice with PBS. The secondary antibody, goat anti-Human IgG (PE, abcam, ab98596), was diluted (1:200) and added using 100 μL per tube. The reaction was performed on an ice bath for 1 hour in the dark. The cells were pelleted again and washed twice with PBS, resuspended in 300 μL PBS, and FL2 fluorescence readings were measured by cytometry. The results were analyzed by FlowJo™10 software.
# Anti-FOLR1 antibody binding to Hela and RPTEC/TERT1 cells was tested by FACS. The study was carried out as described above. […]
molecule,measurement,value
"F40: anti-FOLR1 antibody clone; ""Clone F40 has a different HCDRs and LCDRs, and with different HFR and LFR"" (antibody, V domains shown) VH: EVQLLESGGGVVQPGRSLRLSCAASGFTFSSYAMHWVRQAPGKGLEWVAVISYDGSNKYYADSVKGRFIISRDNSKNTVYLQMNSLRAEDTAVYYCARPTYVFTYTGSSFDYWGQGTQVTVSS VL: DIQVTQSPSSLSASLGDTVSITCRASRGLTDSVAWYQQKPGQAPKLLIYAASTLQSGVPSRFGGSGSGSYFTLTITSLQPEDVATYYCQNYKSAPWTFGQGTKVEIK",Hela cell binding,weakly positive
